Molecular target: synthetic MBP-HIS-EBOV-GP fusion peptide (Zaire Ebolavirus (EBOV), UniProt P0AEX9 27-392 = MBP)
Test: ELISA on coated recombinant fusion protein

B1: murine monoclonal antibody 3327 (antibody, V domains shown)
VH: EVQLQESGPSLGKPSQTLSLTCSVTGDSITSGYWNWIRKFPGSKLEYMGYITSSGSTYYNPSLKSRISITRDTSKNQYYLQLNSVTSEDTATYYCAREGARSSGGWYFDVWGAGTTVTVSS
VL: DIVMTQSHKFMSTSVGDRVSITCKASQDVSSAVVWYQQKPGQSPKLLIYWASTRHTGVPDRFTGSGSGTDYTLTISSVQAEDLALYYCQQHYSTPTFGGGTKLEIKR
  binding result: no binding
